Data: US20110008345A1 (GlaxoSmithKline, published 2011)
Changes are numbered by the printed parent chain. “And” between values parts separate entries of the source, which are not always exact repeats. Equal values may be shown once. Read-outs that look alike come from different tables or passages of the source. Blank lines part the entries; values can stand above or below the binder they belong to.

Experiments:
[1] = target: T1, recombinant E. coli-expressed human IL-13 (human, UniProt P35225 35-146); assay: SPR
T1 construct: made and purified at GSK; also called Interleukin-13; rhIL-13

[2] = target: T1, recombinant E. coli-expressed human …; assay: SPR, purified
[3] = target: T1, recombinant E. coli-expressed human …; assay: SPR, no IL-4 bound
[4] = target: T1, recombinant E. coli-expressed human …; assay: cell-based or functional assay
[5] = target: T2, recombinant E. coli-expressed human IL-4 (human, UniProt P05112 25-153); assay: cell-based or functional assay
T2 sequence: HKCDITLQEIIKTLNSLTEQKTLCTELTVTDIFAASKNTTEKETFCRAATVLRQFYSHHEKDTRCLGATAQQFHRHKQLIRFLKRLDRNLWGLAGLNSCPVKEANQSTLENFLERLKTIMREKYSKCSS

[6] = target: T1, recombinant E. coli-expressed human …; assay: SPR, human IL-4 bound first
[7] = target: T2, recombinant E. coli-expressed human IL-4; assay: ELISA, IL-4 binding to IL4Ralpha-Fc
[8] = target: T3, recombinant E. coli-expressed cynomolgus IL-13 (cynomolgus, UniProt Q0PW92 21-132); assay: SPR
T3 construct: also called cyno IL-13

[9] = target: T4, recombinant E. coli-expressed cynomolgus IL-4 (cynomolgus, UniProt P79339 25-153); assay: SPR
T4 construct: also called cyno IL-4
T4 sequence (looked up): T2 sequence with E26K, V29I, F33L

[10] = target: T1, recombinant E. coli-expressed human …; assay: SPR; remark: listed apart in the source
[11] = target: T1, recombinant E. coli-expressed human …; assay: SPR exp 3
[12] = target: T2, recombinant E. coli-expressed human IL-4; assay: SPR
[13] = target: T2, recombinant E. coli-expressed human IL-4; assay: SPR, poor curve fit
[14] = target: T2, recombinant E. coli-expressed human IL-4; assay: SPR, purified
[15] = target: T1, recombinant E. coli-expressed human …; assay: cell-based or functional assay; remark: listed apart in the source
[16] = target: T3, recombinant E. coli-expressed …; assay: cell-based or functional assay
[17] = target: T1, recombinant E. coli-expressed human …; assay: cell-based or functional assay; remark: listed apart in the source
[18] = target: T3, recombinant E. coli-expressed …; assay: cell-based or functional assay; remark: listed apart in the source
[19] = target: T1, recombinant E. coli-expressed human …; assay: ELISA, IL-13 binding to IL13Ralpha2/Fc
[20] = target: T1, recombinant E. coli-expressed human …; assay: SPR; remark: listed apart in the source
[21] = target: T5, CD20 on CD20 positive cell line (Wein133) (UniProt P11836 1-297, limits assumed); assay: flow cytometry, Wein133 cells
T5 construct: whole, on cells
T5 sequence (looked up): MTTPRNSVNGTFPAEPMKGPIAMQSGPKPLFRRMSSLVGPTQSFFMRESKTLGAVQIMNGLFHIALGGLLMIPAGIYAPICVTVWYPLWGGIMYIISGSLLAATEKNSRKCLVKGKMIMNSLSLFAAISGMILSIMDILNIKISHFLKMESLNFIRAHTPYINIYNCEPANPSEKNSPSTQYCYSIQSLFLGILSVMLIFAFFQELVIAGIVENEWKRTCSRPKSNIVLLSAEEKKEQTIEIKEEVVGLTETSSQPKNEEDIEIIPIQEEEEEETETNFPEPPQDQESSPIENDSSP

VEGF R2 (VEGF receptor) = target: T6, VEGF R2 (VEGF receptor) (human, UniProt P35968 20-764); assay: ELISA
T6 construct: bought; construct not described
T6 sequence (P35968 20-764 limits assumed): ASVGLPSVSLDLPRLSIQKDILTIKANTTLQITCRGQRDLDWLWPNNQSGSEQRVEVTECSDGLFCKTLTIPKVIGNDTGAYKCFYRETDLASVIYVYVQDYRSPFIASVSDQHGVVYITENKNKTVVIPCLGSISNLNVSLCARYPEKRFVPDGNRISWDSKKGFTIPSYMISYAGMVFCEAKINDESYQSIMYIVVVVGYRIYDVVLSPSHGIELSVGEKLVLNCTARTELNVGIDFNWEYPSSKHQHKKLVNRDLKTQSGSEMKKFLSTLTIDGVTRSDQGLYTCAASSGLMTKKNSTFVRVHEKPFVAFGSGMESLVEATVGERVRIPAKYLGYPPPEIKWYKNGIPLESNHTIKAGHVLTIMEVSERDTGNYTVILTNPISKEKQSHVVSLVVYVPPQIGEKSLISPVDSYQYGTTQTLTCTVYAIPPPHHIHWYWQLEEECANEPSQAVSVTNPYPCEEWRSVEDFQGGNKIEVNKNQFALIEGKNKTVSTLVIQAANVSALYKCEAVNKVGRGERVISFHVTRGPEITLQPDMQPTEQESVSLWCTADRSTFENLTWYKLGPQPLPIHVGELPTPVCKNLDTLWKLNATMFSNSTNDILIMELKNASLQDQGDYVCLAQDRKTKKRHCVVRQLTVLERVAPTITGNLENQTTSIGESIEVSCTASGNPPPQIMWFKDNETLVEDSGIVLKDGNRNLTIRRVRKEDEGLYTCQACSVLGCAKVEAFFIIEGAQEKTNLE

[22] = target: T1, recombinant E. coli-expressed human …; assay: SPR; remark: listed apart in the source
[23] = target: T2, recombinant E. coli-expressed human IL-4; assay: SPR; remark: listed apart in the source
[24] = target: T3, recombinant E. coli-expressed …; assay: SPR; remark: listed apart in the source
[25] = target: T3, recombinant E. coli-expressed …; assay: SPR; remark: listed apart in the source
[26] = target: T4, recombinant E. coli-expressed …; assay: SPR; remark: listed apart in the source
[27] = target: T1, recombinant E. coli-expressed human …; assay: cell-based or functional assay; remark: listed apart in the source
[28] = target: T3, recombinant E. coli-expressed …; assay: cell-based or functional assay; remark: listed apart in the source

Mean ND50 (TF-1) [15]: 0.416 nM
Mean ND50 (TF-1) [16]: 4.81 nM
Mean ND50 (TF-1) [17]: 0.536 nM
Mean ND50 (TF-1) [18]: 3.57 nM
IC50 [19]: 5.76 nM
B7: DOM10-53-616 domain antibody (other)
VH: GVQLLESGGGLVQPGGSLRLSCAASGFVFPWYDMGWVRQAPGKGLEWVSSIDWHGKITYYADSVKGRFTISRDNSKNTLYLQMNSLRAEDTAVYYCATAEDEPGYDYWGQGTLVTVSS
notes: anti-IL-13 dAb

Kd [20]: 1.02 nM
koff [20]: 0.000508 s⁻¹
kon [20]: 499000 M⁻¹ s⁻¹
binding result [21]: binds
B8: BPC1404 (bispecific antibody, human IgG1, kappa)
heavy: not shown
light: QIVLSQSPAILSASPGEKVTMTCRASSSVSYIHWFQQKPGSSPKPWIYATSNLASGVPVRFSGSGSGTSYSLTISRVEAEDAATYYCQQWTSNPPTFGGGTKLEIKRTVAAPSVFIFPPSDEQLKSGTASVVCLLNNFYPREAKVQWKVDNALQSGNSQESVTEQDSKDSTYSLSSTLTLSKADYEKHKVYACEVTHQGLSSPVTKSFNRGECGSGVQLLESGGGLVQPGGSLRLSCAASGFTFAWYDMGWVRQAPGKGLEWVSSIDWHGEVTYYADSVKGRFTISRDNSKNTLYLQMNSLRAEDTAVYYCATAEDEPGYDYWGQGTLVTVSS
notes: also called RituxanL-GS-DOM474

Kd [20]: 0.358 nM
koff [20]: 0.000305 s⁻¹
kon [20]: 852000 M⁻¹ s⁻¹
binding result [21]: binds
B10: BPC1402 (bispecific antibody, human IgG1, kappa)
heavy: not shown
light: QIVLSQSPAILSASPGEKVTMTCRASSSVSYIHWFQQKPGSSPKPWIYATSNLASGVPVRFSGSGSGTSYSLTISRVEAEDAATYYCQQWTSNPPTFGGGTKLEIKRTVAAPSVFIFPPSDEQLKSGTASVVCLLNNFYPREAKVQWKVDNALQSGNSQESVTEQDSKDSTYSLSSTLTLSKADYEKHKVYACEVTHQGLSSPVTKSFNRGEC
notes: also called RituxanH-GS-DOM474

binding result (VEGF R2 (VEGF receptor)): binds
B11: BPC1801 (bispecific antibody, human IgG1, kappa)
heavy: not shown
light: DIVMTQSPLSLPVTPGEPASISCRSSQSIVQSNGDTYLEWYLQKPGQSPQLLIYRVSNRFSGVPDRFSGSGSGTDFTLKISRVEAEDVGVYYCFQGSHVPYTFGQGTKLEIKRTVAAPSVFIFPPSDEQLKSGTASVVCLLNNFYPREAKVQWKVDNALQSGNSQESVTEQDSKDSTYSLSSTLTLSKADYEKHKVYACEVTHQGLSSPVTKSFNRGEC
notes: also called antiIGF1R Heavy Chain-GS-CT01 adnectin

binding result (VEGF R2 (VEGF receptor)): binds
B12: BPC1802 (bispecific antibody, human IgG1, kappa)
heavy: not shown
light: B11 light

Kd [25]: 23.8 nM
koff [25]: 0.0114 s⁻¹
kon [25]: 479000 M⁻¹ s⁻¹
Kd [26]: 0.029 nM
koff [26]: 5.3e-05 s⁻¹
kon [26]: 1.83e+06 M⁻¹ s⁻¹
Mean ND50 (TF-1) [27]: 1.37 nM
Mean ND50 (TF-1) [28]: 21.5 nM
B14: PascoH-GS-ASTKGPT-474 2nd GS removed (bispecific antibody, human IgG1, kappa)
heavy: not shown
light: DIVLTQSPSSLSASVGDRVTITCKASQSVDYDGDSYMNWYQQKPGKAPKLLIYAASNLESGIPSRFSGSGSGTDFTFTISSLQPEDIATYYCQQSNEDPPTFGQGTKVEIKRTVAAPSVFIFPPSDEQLKSGTASVVCLLNNFYPREAKVQWKVDNALQSGNSQESVTEQDSKDSTYSLSSTLTLSKADYEKHKVYACEVTHQGLSSPVTKSFNRGEC

Kd [22]: 0.747 nM
koff [22]: 0.000169 s⁻¹
kon [22]: 226000 M⁻¹ s⁻¹
Kd [23]: 0.00482 nM
koff [23]: 2.37e-05 s⁻¹
kon [23]: 4.92e+06 M⁻¹ s⁻¹
Kd [24]: 12.5 nM
koff [24]: 0.0209 s⁻¹
kon [24]: 1.67e+06 M⁻¹ s⁻¹
Mean ND50 (TF-1) [17]: 1.52 nM
Mean ND50 (TF-1) [18]: 33.9 nM
B15: PascoH-TVAAPS-546 (bispecific antibody, human IgG1, kappa)
heavy: not shown
light: B14 light

Continued, binder first:

B1: 586H-TVAAPS-210 (bispecific antibody, human IgG1, kappa)
heavy: not shown
light: DIVMTQSPLSLPVTPGEPASISCRSSQNIVHINGNTYLEWYLQKPGQSPRLLIYKISDRFSGVPDRFSGSGSGTDFTLKISRVEADDVGIYYCFQGSHVPWTFGQGTKLEIKRTVAAPSVFIFPPSDEQLKSGTASVVCLLNNFYPREAKVQWKVDNALQSGNSQESVTEQDSKDSTYSLSSTLTLSKADYEKHKVYACEVTHQGLSSPVTKSFNRGEC
Kd [1]: 0.4 nM
Kd [2]: 0.38 nM
Kd [3]: 0.381 nM
koff [3]: 0.000347 s⁻¹
kon [3]: 909000 M⁻¹ s⁻¹
Mean IC50 (whole blood phospho-STAT6) [4]: 2.68 nM
Mean IC50 (whole blood phospho-STAT6) [5]: 1.23 nM
Kd [6]: 0.325 nM
koff [6]: 0.000315 s⁻¹
kon [6]: 968000 M⁻¹ s⁻¹
IC50 [7]: 23.8 nM and 21 nM

B2: 586H-TVAAPS-210 GS removed (bispecific antibody, human IgG1, kappa)
heavy: not shown
light: B1 light
notes: also called BPC1602
Kd [8]: 0.058 nM
koff [8]: 2.86e-05 s⁻¹
kon [8]: 492000 M⁻¹ s⁻¹
binding result [9]: binds
Kd [10]: 0.562 nM
Kd [11]: 0.501 nM
IC50 [7]: 19.2 nM

B3: 586H-ELQLE-147 (bispecific antibody, human IgG1, kappa)
heavy: not shown
light: B1 light
Kd [1]: 0.51 nM
koff [12]: 1.52e-05 s⁻¹
kon [12]: 701000 M⁻¹ s⁻¹
Kd [13]: 0.027 nM

B4: 586H-ELQLE-154 (bispecific antibody, human IgG1, kappa)
heavy: not shown
light: B1 light
Kd [1]: 0.44 nM
koff [12]: 3.57e-06 s⁻¹
kon [12]: 1.25e+06 M⁻¹ s⁻¹
Kd [13]: 0.003 nM

B5: 586H-TVAAPS-25 (bispecific antibody, human IgG1, kappa)
heavy: not shown
light: B1 light
Kd [1]: 0.5 nM
Kd [12]: 0.95 nM
koff [12]: 0.00012 s⁻¹
kon [12]: 127000 M⁻¹ s⁻¹
Kd [2]: 0.38 nM
Kd [14]: 1.1 nM

B6: 586H-ELQLE-25 (bispecific antibody, human IgG1, kappa)
heavy: not shown
light: B1 light
Kd [1]: 0.42 nM
koff [12]: 1.63e-06 s⁻¹
kon [12]: 1.26e+06 M⁻¹ s⁻¹
Kd [13]: 0.001 nM

B9: BPC1401 (bispecific antibody, human IgG1, kappa)
heavy: not shown
light: B10 light
Kd [20]: 0.313 nM
koff [20]: 0.000182 s⁻¹
kon [20]: 581000 M⁻¹ s⁻¹
binding result [21]: binds

B13: PascoH-TVAAPS-567 (bispecific antibody, human IgG1, kappa)
heavy: not shown
light: B14 light
Kd [22]: 0.038 nM
koff [22]: 1.7e-05 s⁻¹
kon [22]: 446000 M⁻¹ s⁻¹
binding result [23]: binds
Kd [24]: 8.8 nM
koff [24]: 0.00522 s⁻¹
kon [24]: 592000 M⁻¹ s⁻¹
Mean ND50 (TF-1) [17]: 2.06 nM
Mean ND50 (TF-1) [18]: 38.2 nM
